# Results published in US20040067880A1 (priority 2002, published 2004).
# B1: CD: recombinant Escherichia coli cytosine deaminase with 6 histidine residues at the C-terminus (protein, UniProt P25524 2-427, looked up)
# Cytosine deaminase: SNNALQTIINARLPGEEGLWQIHLQDGKISAIDAQSGVMPITENSLDAEQGLVIPPFVEPHIHLDTTQTAGQPNWNQSGTLFEGIERWAERKALLTHDDVKQRAWQTLKWQIANGIQHVRTHVDVSDATLTALKAMLEVKQEVAPWIDLQIVAFPQEGILSYPNGEALLEEALRLGADVVGAIPHFEFTREYGVESLHKTFALAQKYDRLIDVHCDEIDDEQSRFVETVAALAHHEGMGARVTASHTTAMHSYNGAYTSRLFRLLKMSGINFVANPLVNIHLQGRFDTYPKRRGITRVKEMLESGINVCFGHDDVFDPWYPLGTANMLQVLHMGLHVCQLMGYGQINDGLNLITHHSARTLNLQDYGIAAGNSANLIILPAENGFDALRRQVPVRYSVRGGKVIASTQPAQTTVYLEQPEAIDYKR
# modifications: C-terminal His6 tag
# notes: recombinant Escherichia coli cytosine deaminase with 6 histidine residues at the C-terminus
# Experiments:
# [1] = target: CS receptor on human cells (HepG2 hepatoma cells; human liver metastases of colorectal cancer) (human); test: indirect immunofluorescence on frozen sections of human liver MCC from six patients
# [2] = target: CS receptor on human cells (HepG2 hepatoma cells; human liver metastases of colorectal cancer) (human); test: cell-based or functional assay
# [3] = target: CS receptor on mouse colorectal carcinoma MCA26 cells (mouse); test: cell-based or functional assay
# [4] = target: CS receptor on rat cells (rat liver sections; rat hepatoma H4IIE) (rat); test: cell-based or functional assay
# [5] = Cytosine deaminase enzymatic activity assay (conversion of [3H]cytosine to [3H]uracil); assay type: biochemical; conditions: purified recombinant protein
# Description: Crude cell extracts were prepared by sonicating cells in a buffer (50 mM Na phosphate, pH 7.8 and 0.3 M NaCl) followed by centrifugation. Cytosine deaminase activity was determined by measuring the production of uracil in a reaction mixture (50 μl) containing 5 mM, 6-[^3H]cytosine (0.45 Ci/mol), 50 mM Tris-HCl pH 7.8, 1 mM DTT, 1 mM EDTA and cellular crude extract (10-20 μg/ml) or eluted fractions. After 1-2 hour of incubation at 37° C., 10 μl aliquots were withdrawn and analyzed by thin layer chromatography (Silica Gel 60, Selecto Scientific, Norcross, Ga.). Chromatograms were developed in 1-butanol /water (86/14, v/v). Positions of cytosine and uracil were identified by […]. The corresponding spots for cytosine and uracil were cut out and radioactivities were determined in a scintillation counter. In some cases, 6-[3H] 5-FC (4.0 Ci/mmol) was used as a substrate in the assay.
# HepG2 cells [6] = assay type: cell-based, human; conditions: HepG2, 0.64 μM protein 4 hrs, 1 mM 5-FC, viability after 4 days
# HL60 cells = test: Cytotoxicity assay with 5-FC in HL60 cells; assay type: cell-based; conditions: HL-60, 0.64 μM protein 4 hrs, protein removed (washed), 1 mM 5-FC
# HepG2 cells [7] = test: Persistent effect on 5-FC cell killing of HepG2 cells; assay type: cell-based, human; conditions: HepG2, 0.5 μM protein 4 hrs, then 5-FC at intervals
# Description: FIG. 7. Persistent effect of CD-CS on cell killing of HepG2 cells. HepG2 cells were treated with 0.8 μM of CD-CS or with CD as a control for 4 hr. Cells was washed with fresh medium and cultured in the regular medium. Cultures were split once every 6 days. At different time intervals, cells were treated with 1 mM 5-FC. Cell viability was counted 4 days thereafter. Each point represents an average of three independent experiments.
# HepG2 cells were treated with 0.5 μM of CD-CS or CD for 4 hrs and the recombinant proteins were removed from the medium and the cells were maintained in fresh medium thereafter. At different time intervals, cells were treated with 5-FC. Sustained cell killing was observed even 28 days after the removal of the recombinant protein (FIG. 7).
molecule,measurement,setting,value
full-length recombinant CS protein (malarial circumsporozoite protein) (from UniProt P19597 27-396) (ligand),positive staining cells,[1],> 90%
"CD-CS fusion protein (cytosine deaminase fused to repeat-deleted malarial circumsporozoite protein, encoded by pCD5-73.15.5) (from UniProt P19597 27-29; P25524 2-427; P19597 30-396)","LD50 of CD-CS-mediated cell killing, HepG2",[2],0.22 µM
same,"LD50 of CD-CS-mediated cell killing, MCA26",[3],0.22 µM
same,"LD50 of CD-CS-mediated cell killing, rat hepatoma H-4-II-E",[4],0.22 µM
B1,"specific activity, conversion of [3H]cytosine to [3H]uracil",[5],"3,308 nmol/min/mg protein"
same,sensitivity of protein-treated cells to 5-FC,HepG2 cells [6]; unwashed,sensitive
same,sensitivity of protein-pretreated cells to 5-FC / cell killing,HepG2 cells [6]; washed,could not
same,cell death upon subsequent addition of 5-FC,HL60 cells,failed to induce cell death
same,cell killing (basal level),HepG2 cells [7],< 10%
